Test results: patent publication US20190040368

Test system: recombinant human iduronate-2 sulfatase (rhIDS)
Sequence (chain, as listed by the source): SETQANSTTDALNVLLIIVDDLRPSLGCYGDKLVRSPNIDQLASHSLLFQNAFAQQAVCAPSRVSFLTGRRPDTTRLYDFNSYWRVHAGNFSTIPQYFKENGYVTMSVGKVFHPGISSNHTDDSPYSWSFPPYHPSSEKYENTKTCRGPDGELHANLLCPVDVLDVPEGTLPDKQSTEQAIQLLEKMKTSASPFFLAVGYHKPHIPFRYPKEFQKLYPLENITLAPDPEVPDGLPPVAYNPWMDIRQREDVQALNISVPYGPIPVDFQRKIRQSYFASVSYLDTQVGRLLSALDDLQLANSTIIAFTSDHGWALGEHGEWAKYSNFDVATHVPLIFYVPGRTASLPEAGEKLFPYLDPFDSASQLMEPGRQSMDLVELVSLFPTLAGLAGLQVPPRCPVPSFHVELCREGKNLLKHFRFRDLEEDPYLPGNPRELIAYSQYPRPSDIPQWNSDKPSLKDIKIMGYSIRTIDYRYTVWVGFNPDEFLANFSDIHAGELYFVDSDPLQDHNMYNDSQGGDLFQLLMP

Chain of Dendroctonus ponderosa Lip2-DpFGE-His6-HDEL fusion construct (chain, as listed by the source): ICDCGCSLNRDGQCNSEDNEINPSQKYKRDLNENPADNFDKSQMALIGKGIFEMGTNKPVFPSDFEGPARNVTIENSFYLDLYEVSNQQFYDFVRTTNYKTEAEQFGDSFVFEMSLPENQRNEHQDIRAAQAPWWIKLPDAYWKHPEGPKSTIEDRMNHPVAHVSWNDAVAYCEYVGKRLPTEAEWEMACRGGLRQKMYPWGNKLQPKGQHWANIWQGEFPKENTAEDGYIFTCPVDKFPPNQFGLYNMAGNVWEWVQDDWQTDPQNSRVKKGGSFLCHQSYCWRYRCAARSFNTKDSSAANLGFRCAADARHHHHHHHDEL

Work on “Dendroctonus ponderosa Lip2-DpFGE-His6-HDEL fusion construct” yielded a % activity of rhIDS; co-expression with DpFGE of 5%.
